# Measured values: the supplement of paper PMC9112550, “Optimization of the antimicrobial peptide Bac7 by deep mutational scanning” (BMC Biology, 2022)
# Tested on: Escherichia coli TOP10
# Test: shrunken log2 fold change of peptide-encoding DNA abundance (4.5 h post-induction vs induction); higher = less antimicrobial activity (less host growth inhibition)
# Settings: time post-induction: 4.5 h; library: site-saturation at positions 5, 18, 19, 20
# 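Note: peptides expressed intracellularly from a pBAD plasmid library in pooled LB shake-flask culture, induced with 0.3% L-arabinose, DNA abundance read by NGS, three biological replicates, DESeq2 with apeglm shrinkage.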
row,Sequence,shrunken log2 fold change
1,RRIRLRPPRLPRPRPRPTQAPRP,0.507
2,RRIRTRPPRLPRPRPRPSGVPRP,0.00112
3,RRIRWRPPRLPRPRPRPHLTPRP,-0.19
4,RRIRTRPPRLPRPRPRPVFMPRP,-0.25
5,RRIRQRPPRLPRPRPRPTIQPRP,0.0369
6,RRIRRRPPRLPRPRPRPTYDPRP,0.0415
7,RRIRVRPPRLPRPRPRPMVKPRP,-0.166
8,RRIRDRPPRLPRPRPRPTVTPRP,0.853
9,RRIRMRPPRLPRPRPRPIMRPRP,0.537
10,RRIRVRPPRLPRPRPRPCENPRP,-0.0135
11,RRIRPRPPRLPRPRPRPTSNPRP,-0.123
12,RRIRNRPPRLPRPRPRPAFNPRP,0.179
13,RRIRSRPPRLPRPRPRPLGKPRP,2.2
14,RRIRARPPRLPRPRPRPIRNPRP,-0.179
15,RRIRIRPPRLPRPRPRPSSCPRP,-0.17
16,RRIRNRPPRLPRPRPRPQLTPRP,-0.026
17,RRIRSRPPRLPRPRPRPSLLPRP,-0.146
18,RRIRYRPPRLPRPRPRPGDNPRP,-0.0446
19,RRIRCRPPRLPRPRPRPEGFPRP,0.0977
20,RRIRSRPPRLPRPRPRPTWIPRP,-0.38
21,RRIRSRPPRLPRPRPRPYTMPRP,-0.19
22,RRIRPRPPRLPRPRPRPQWAPRP,0.052
23,RRIRARPPRLPRPRPRPQSGPRP,-0.0719
24,RRIRMRPPRLPRPRPRPSACPRP,1.99
25,RRIRPRPPRLPRPRPRPQGDPRP,0.243

row,Sequence,shrunken log2 fold change
1,RRIRKRPPRLPRPRPRPMDFPRP,-0.0018
2,RRIRQRPPRLPRPRPRPLDNPRP,-0.151
3,RRIRNRPPRLPRPRPRPFRGPRP,0.168
4,RRIRFRPPRLPRPRPRPTNEPRP,-0.264
5,RRIRHRPPRLPRPRPRPTWNPRP,-0.267
6,RRIRSRPPRLPRPRPRPEQQPRP,0.0303
7,RRIRPRPPRLPRPRPRPYHNPRP,-0.785
8,RRIRSRPPRLPRPRPRPRETPRP,0.124
9,RRIRYRPPRLPRPRPRPCMRPRP,-0.091
10,RRIRPRPPRLPRPRPRPSSSPRP,-0.134
11,RRIRCRPPRLPRPRPRPGTVPRP,-0.339
12,RRIRLRPPRLPRPRPRPCAIPRP,-0.218
13,RRIRSRPPRLPRPRPRPNDIPRP,-0.333
14,RRIRNRPPRLPRPRPRPGYHPRP,-0.37
15,RRIRCRPPRLPRPRPRPKHGPRP,-0.116
16,RRIRRRPPRLPRPRPRPNQNPRP,0.14
17,RRIRSRPPRLPRPRPRPCWEPRP,0.311
18,RRIRTRPPRLPRPRPRPEYMPRP,-0.263
19,RRIRCRPPRLPRPRPRPRKHPRP,0.0674
20,RRIRWRPPRLPRPRPRPCNAPRP,-0.0905
21,RRIRYRPPRLPRPRPRPCGHPRP,-0.0238
22,RRIRDRPPRLPRPRPRPGKAPRP,0.00543
23,RRIRLRPPRLPRPRPRPICWPRP,-0.0336
24,RRIRKRPPRLPRPRPRPPDWPRP,1.48
25,RRIRDRPPRLPRPRPRPQGEPRP,-0.0304

row,Sequence,shrunken log2 fold change
1,RRIRERPPRLPRPRPRPWFKPRP,-0.0858
2,RRIRWRPPRLPRPRPRPFFWPRP,1.17
3,RRIRGRPPRLPRPRPRPNHRPRP,0.00454
4,RRIRRRPPRLPRPRPRPCQFPRP,-0.0684
5,RRIRMRPPRLPRPRPRPTGMPRP,0.136
6,RRIRTRPPRLPRPRPRPCITPRP,-0.96
7,RRIRMRPPRLPRPRPRPMPQPRP,4.29
8,RRIRMRPPRLPRPRPRPTYQPRP,-0.063
9,RRIRKRPPRLPRPRPRPQSFPRP,0.327
10,RRIRYRPPRLPRPRPRPVVSPRP,-0.595
11,RRIRHRPPRLPRPRPRPQHKPRP,-0.494
12,RRIRTRPPRLPRPRPRPEFQPRP,-0.161
13,RRIRIRPPRLPRPRPRPTREPRP,0.255
14,RRIRKRPPRLPRPRPRPFGTPRP,-0.0368
15,RRIRCRPPRLPRPRPRPQCWPRP,0.0604
16,RRIRERPPRLPRPRPRPYRGPRP,-0.00417
17,RRIRDRPPRLPRPRPRPNYMPRP,-0.216
18,RRIRCRPPRLPRPRPRPWFFPRP,-0.24
19,RRIRLRPPRLPRPRPRPQIDPRP,0.0696
20,RRIRTRPPRLPRPRPRPWQEPRP,0.0948
21,RRIRSRPPRLPRPRPRPALNPRP,0.161
22,RRIRLRPPRLPRPRPRPCQIPRP,-0.102
23,RRIRQRPPRLPRPRPRPIFVPRP,-0.217
24,RRIRNRPPRLPRPRPRPSDGPRP,0.0337
25,RRIRERPPRLPRPRPRPHKTPRP,0.0137
